T1: cIL2Rg-Fc (lot#P210115SV5) (cynomolgus, UniProt A0A2K5VGJ6 23-262)
T1 construct: Named only by lot number; also called cynomolgus IL2Rg-Fc; not shown: Fc of the fusion protein
T1 sequence: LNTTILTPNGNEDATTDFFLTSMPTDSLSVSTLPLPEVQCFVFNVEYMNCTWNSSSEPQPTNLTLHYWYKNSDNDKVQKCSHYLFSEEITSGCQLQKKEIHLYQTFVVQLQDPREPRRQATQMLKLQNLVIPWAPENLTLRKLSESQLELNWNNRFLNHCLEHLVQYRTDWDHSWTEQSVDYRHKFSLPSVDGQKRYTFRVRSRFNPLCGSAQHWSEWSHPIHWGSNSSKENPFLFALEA

T2: hIL2Rg-Fc (SinoBiological cat#10555) (human, UniProt P31785 23-254, limits assumed)
T2 construct: Bought Fc fusion (SinoBiological cat#10555); P31785 is printed for hCD132 in the background; also called human IL2Rg-Fc; not shown: Fc of the bought fusion protein
T2 sequence (looked up): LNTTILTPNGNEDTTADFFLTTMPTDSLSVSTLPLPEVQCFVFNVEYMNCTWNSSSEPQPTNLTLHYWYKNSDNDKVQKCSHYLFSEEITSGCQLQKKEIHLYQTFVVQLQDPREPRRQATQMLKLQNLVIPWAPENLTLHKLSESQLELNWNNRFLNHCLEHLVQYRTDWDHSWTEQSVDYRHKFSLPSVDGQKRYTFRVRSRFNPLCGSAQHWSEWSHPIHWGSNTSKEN

B1: DR466(DR240-DR232) (bispecific antibody)
chain: QVQLQESGGGSVQAGGSLRLSCGASGYTYSSYCMGWFRQVPGKEREGVAVIDSDGSTSYADSVKGRFTISKDNGKNTLYLQMNSLKPEDTAMYYCAADLGHYRPPCGVLYLGMDYWGKGTQVTVSSGGGSQVQLQESGGGSVQAGGSLRLSCVASGYTSCMGWFRQAPGKEREAVATIYTRGRSIYYADSVKGRFTISQDNAKNTLYLQMNSLKPEDIAMYSCAAGGYSWSAGCEFNYWGQGTQVTVSSASHHHHHH
notes: Anti-hIL10Ra/hIL2Rg dual VHH with ASH6 handle; also called H7
B2: DR474(DR241-DR234) (bispecific antibody)
chain: QVQLQESGGGSVQAGGSLRLSCAASGYSNCSYDMTWYRQAPGKEREFVSAIHSDGSTRYADSVKGRFFISQDNAKNTVYLQMNSLKPEDTAMYYCKTDPLHCRAHGGSWYSVRANYWGQGTQVTVSSGGGSQVQLQESGGGSVQAGGSLRLSCVASGYTFSSYCMGWFRQAPGKEREGVAALGGGSTYYADSVKGRFTISQDNAKNTLYLQMNSLKPEDTAMYYCAAAWVACLEFGGSWYDLARYKHWGQGTQVTVSSASHHHHHH
notes: Anti-hIL10Ra/hIL2Rg dual VHH with ASH6 handle; also called H9
B3: DR392(DR229-DR236) (bispecific antibody)
chain: QVQLQESGGGLVQPGGSLRLSCTASGFSFSSYPMTWARQAPGKGLEWVSTIASDGGSTAYAASVEGRFTISRDNAKSTLYLQLNSLKTEDTAMYYCTKGYGDGTPAPGQGTQVTVSSGGGSQVQLQESGGGSVQAGGSLRLSCAASRFTYSSYCMGWFRQAPGKEREGVASIDSDGSTSYTDSVKGRFTISKDNAKNTLYLQMNSLKPEDTAMYYCALDLMSTVVPGFCGFLLSAGMDYWGKGTQVTVSSASHHHHHH
notes: Anti-hIL10Ra/hIL2Rg dual VHH with ASH6 handle; also called A7
B4: DR437(DR235-DR233) (bispecific antibody)
chain: QVQLQESGGGSVQAGGSLRLSCAASRYLYSIDYMAWFRQSPGKEREPVAVIYTASGATFYPDSVKGRFTISQDNAKMTVYLQMNSLKSEDTAMYYCAAVRKTDSYLFDAQSFTYWGQGTQVTVSSGGGSQVQLQESGGGSVQAGGSLRLSCTASGFTFDDSDMGWYRQAPGNECELVSTISSDGSTYYADSVKGRFTISQDNAKNTVYLQMNSLKPEDTAVYYCAAEPRGYYSNYGGRRECNYWGQGTQVTVSSASHHHHHH
notes: Anti-hIL10Ra/hIL2Rg dual VHH with ASH6 handle; also called D6
B5: DR438(DR235-DR234) (bispecific antibody)
chain: QVQLQESGGGSVQAGGSLRLSCAASRYLYSIDYMAWFRQSPGKEREPVAVIYTASGATFYPDSVKGRFTISQDNAKMTVYLQMNSLKSEDTAMYYCAAVRKTDSYLFDAQSFTYWGQGTQVTVSSGGGSQVQLQESGGGSVQAGGSLRLSCVASGYTFSSYCMGWFRQAPGKEREGVAALGGGSTYYADSVKGRFTISQDNAKNTLYLQMNSLKPEDTAMYYCAAAWVACLEFGGSWYDLARYKHWGQGTQVTVSSASHHHHHH
notes: Anti-hIL10Ra/hIL2Rg dual VHH with ASH6 handle; also called D12
B6: DR444(DR236-DR234) (bispecific antibody)
chain: QVQLQESGGGSVQAGGSLRLSCAASRFTYSSYCMGWFRQAPGKEREGVASIDSDGSTSYTDSVKGRFTISKDNAKNTLYLQMNSLKPEDTAMYYCALDLMSTVVPGFCGFLLSAGMDYWGKGTQVTVSSGGGSQVQLQESGGGSVQAGGSLRLSCVASGYTFSSYCMGWFRQAPGKEREGVAALGGGSTYYADSVKGRFTISQDNAKNTLYLQMNSLKPEDTAMYYCAAAWVACLEFGGSWYDLARYKHWGQGTQVTVSSASHHHHHH
notes: Anti-hIL10Ra/hIL2Rg dual VHH with ASH6 handle; also called E8
B7: DR441(DR236-DR231) (bispecific antibody)
chain: QVQLQESGGGSVQAGGSLRLSCAASRFTYSSYCMGWFRQAPGKEREGVASIDSDGSTSYTDSVKGRFTISKDNAKNTLYLQMNSLKPEDTAMYYCALDLMSTVVPGFCGFLLSAGMDYWGKGTQVTVSSGGGSQVQLQESGGGSVQAGGSLRLSCTASGFTFDDREMNWYRQAPGNECELVSTISSDGSTYYADSVKGRFTISQDNAKNTVYLQMDSVKPEDTAVYYCAADFMIAIQAPGAGCWGQGTQVTVSSASHHHHHH
notes: Anti-hIL10Ra/hIL2Rg dual VHH with ASH6 handle; also called F1
B8: DR449(DR237-DR233) (bispecific antibody)
chain: QVQLQESGGGSVQAGGSLRLSCAASGYTYSMYCMGWFRQAPGKEREGVAQINSDGSTSYADSVKGRFTISKDNAKNTLYLQMNSLKPEDTAMYYCAADSRVYGGSWYERLCGPYTYEYNYWGQGTQVTVSSGGGSQVQLQESGGGSVQAGGSLRLSCTASGFTFDDSDMGWYRQAPGNECELVSTISSDGSTYYADSVKGRFTISQDNAKNTVYLQMNSLKPEDTAVYYCAAEPRGYYSNYGGRRECNYWGQGTQVTVSSASHHHHHH
notes: Anti-hIL10Ra/hIL2Rg dual VHH with ASH6 handle; also called F3
B9: DR442(DR236-DR232) (bispecific antibody)
chain: QVQLQESGGGSVQAGGSLRLSCAASRFTYSSYCMGWFRQAPGKEREGVASIDSDGSTSYTDSVKGRFTISKDNAKNTLYLQMNSLKPEDTAMYYCALDLMSTVVPGFCGFLLSAGMDYWGKGTQVTVSSGGGSQVQLQESGGGSVQAGGSLRLSCVASGYTSCMGWFRQAPGKEREAVATIYTRGRSIYYADSVKGRFTISQDNAKNTLYLQMNSLKPEDIAMYSCAAGGYSWSAGCEFNYWGQGTQVTVSSASHHHHHH
notes: Anti-hIL10Ra/hIL2Rg dual VHH with ASH6 handle; also called F7

The text below walks through data of patent US20250163162A1 (SYNTHEKINE, published 2025).

Broadly, the Kd is the constant that tells how readily two partners part at equilibrium. Higher therefore signals a looser complex. The term koff denotes the rate constant with which the complex falls apart. The term kon denotes the second-order rate constant of association. A high value points to fast association.

One assay addresses T1, cIL2Rg-Fc (lot#P210115SV5). The assay is described as follows: SPR (Biacore T200); ratio experimental/calculated Rmax.
As for B1, the “Surface Activity” value is 9%.
Still for that read-out and setting: in the case of B2 it was 2%; in that of B3, 1%.
Same read-out and setting: under B4 stands 1%.
Still for that read-out and setting: under B5 stands 1%.
B6: the “Surface Activity” value is 2%.
Take B7: the “Surface Activity” value is 1%.
The same measure, in the same setting: in the case of B8 it was 1%; in that of B9, 7%.

A further assay concerns the target T2, hIL2Rg-Fc (SinoBiological cat#10555). The assay is described as above.
For the molecule B1, the “Surface Activity” value is 6%.
B2: the “Surface Activity” value is 6%.
Turning to B3, the “Surface Activity” value is 4%.
In the case of B4, the “Surface Activity” value is 3%.
Same read-out and setting: in the case of B5 it was 5%; in that of B6, 5%.
Still for that read-out and setting: in the case of B7 it was 4%.
In the case of B8, the “Surface Activity” value is 2%.
The same measure, in the same setting: under B9 stands 5%.

A further assay deals with T1, cIL2Rg-Fc (lot#P210115SV5). The assay is described as follows: SPR (Biacore T200), Fc-fused ligand captured on chip, dual VHH as analyte, 1:1 Langmuir fit. Here is the method:
(§1) All experiments were conducted in 10 mM Hepes, 150 mM NaCl, 0.05% (v/v) Polysorbate 20 (PS20) and 3 mM EDTA (HBS-EP+ buffer) on a Biacore T200 instrument equipped with Protein A or CAP biotin chips (Cytiva). For experiments on Protein A chips, Fc-fused ligands were flowed at 5 μl/min for variable time ranging from 18 to 300 seconds, reaching the capture loads listed in the tables below. Following ligand capture, injections of a 2-fold dilution series of analyte typically comprising at least five concentrations between 1 μM and 1 nM were performed in either high performance or single cycle kinetics mode. Surface regeneration was achieved by flowing 10 mM glycine-HCl, pH 1.5 (60 seconds, […]). Buffer-subtracted sensograms were processed with Biacore T200 Evaluation Software and globally fit with a 1:1 Langmuir binding model (bulk shift set to zero) to extract kinetics and affinity constants (kₐ, kd, KD). RMAX<100 RU indicates surface density compatible with kinetics analysis. Experiments on CAP chips were performed as described above with an additional capture step of Biotin CAPture reagent (10 seconds, 40 uL/min) performed prior to capture of biotinylated ligands. Calculated Rmax were generated using the equation Rmax=Load (RU) x valency of ligand x (Molecular weight of analyte/Molecular weight of ligand. Surface activity was defined as the ratio experimental/calculated Rmax. The results of these experiments are provided in below for sample information and experimental results.
In general terms: Surface plasmon resonance follows binding to a sensor surface in real time, without labels.
The molecule B1 registered a Kd of 49.9 nM, a koff of 0.0037 s⁻¹ and a kon of 75000 M⁻¹ s⁻¹.
For B2 the same measures were 2.9 nM, 0.00093 s⁻¹ and 330000 M⁻¹ s⁻¹.
On the same counts, the results for B3 are 2.4 nM, 0.004 s⁻¹ and 1.6e+06 M⁻¹ s⁻¹.
As to B4, the dissociation constant Kd came out at 7.8 nM, the koff came out at 0.0022 s⁻¹ and the on-rate (kon) amounted to 290000 M⁻¹ s⁻¹.
For B5 the same measures were 2.2 nM, 0.0012 s⁻¹ and 560000 M⁻¹ s⁻¹.
On the same counts, the results for B6 are 5.3 nM, 0.00077 s⁻¹ and 150000 M⁻¹ s⁻¹.
On the same counts, the results for B7 are 8.3 nM, 0.0028 s⁻¹ and 340000 M⁻¹ s⁻¹.
Turning to B8, the dissociation constant Kd turned out to be 22.6 nM, the dissociation rate constant (koff) was found to be 0.0048 s⁻¹ and the kon worked out at 210000 M⁻¹ s⁻¹.
As for B9, the Kd came out at 41.3 nM, the koff came out at 0.0033 s⁻¹ and the association rate constant (kon) is 79000 M⁻¹ s⁻¹.

The target of the next assay is T2, hIL2Rg-Fc (SinoBiological cat#10555). The assay is described as above. Here is the method:
as §1
As for B1, the equilibrium dissociation constant (Kd) was found to be 20.8 nM, the koff turned out to be 0.026 s⁻¹ and the kon was determined as 1.2e+06 M⁻¹ s⁻¹.
Turning to B2, the Kd is 3.2 nM, the koff was 0.00099 s⁻¹ and the on-rate (kon) was 310000 M⁻¹ s⁻¹.
For B3 the same measures were 3.6 nM, 0.0062 s⁻¹ and 1.7e+06 M⁻¹ s⁻¹.
On the same counts, the results for B4 are 27.5 nM, 0.0051 s⁻¹ and 190000 M⁻¹ s⁻¹.
On the same counts, the results for B5 are 2.7 nM, 0.001 s⁻¹ and 390000 M⁻¹ s⁻¹.
B6 yielded a Kd of 6.9 nM, an off-rate constant (koff) of 0.0026 s⁻¹ and an on-rate (kon) of 380000 M⁻¹ s⁻¹.
For B7 the same measures were 11.1 nM, 0.0053 s⁻¹ and 470000 M⁻¹ s⁻¹.
For B8 the same measures were 30.4 nM, 0.0065 s⁻¹ and 220000 M⁻¹ s⁻¹.
On the same counts, the results for B9 are 21.5 nM, 0.042 s⁻¹ and 2e+06 M⁻¹ s⁻¹.
